Results from patent US20130330346A1 (Novartis, published 2013).

T1: Cynomolgus CXCR2 (cynomolgus, UniProt Q28519 3-353 (rhesus entry))
T1 construct: On transfected HEK293T or RBL-2H3 cells; native on cynomolgus neutrophils in the WBSC assay; also called cCXCR2; cynoCXCR2
T1 chain: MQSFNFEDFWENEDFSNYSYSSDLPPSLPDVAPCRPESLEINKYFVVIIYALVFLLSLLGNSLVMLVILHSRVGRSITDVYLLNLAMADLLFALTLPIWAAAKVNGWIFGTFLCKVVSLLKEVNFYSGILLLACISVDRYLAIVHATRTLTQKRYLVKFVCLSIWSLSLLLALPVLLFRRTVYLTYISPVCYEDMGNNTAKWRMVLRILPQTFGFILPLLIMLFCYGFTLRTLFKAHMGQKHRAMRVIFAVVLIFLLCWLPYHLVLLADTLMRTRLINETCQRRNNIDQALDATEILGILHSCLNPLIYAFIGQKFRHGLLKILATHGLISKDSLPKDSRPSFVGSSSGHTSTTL

T2: Human CXCR2 (human, UniProt P25025 1-360)
T2 construct: Some cell lines carry an N-terminal 3xHA tag; also called hCXCR2; huCXCR2
T2 sequence: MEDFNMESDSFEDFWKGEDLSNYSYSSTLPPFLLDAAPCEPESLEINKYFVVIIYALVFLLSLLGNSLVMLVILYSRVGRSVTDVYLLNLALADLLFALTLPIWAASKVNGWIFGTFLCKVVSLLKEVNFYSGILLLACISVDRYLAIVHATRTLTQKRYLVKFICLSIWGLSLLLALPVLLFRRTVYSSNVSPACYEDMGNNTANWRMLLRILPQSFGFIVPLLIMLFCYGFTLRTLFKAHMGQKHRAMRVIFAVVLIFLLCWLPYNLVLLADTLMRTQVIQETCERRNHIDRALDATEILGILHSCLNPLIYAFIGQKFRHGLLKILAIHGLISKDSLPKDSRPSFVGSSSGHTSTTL

B1: CXCR20025 (bispecific antibody)
chain: EVQLVESGGGLVQAGGSLRLSCAASGRTFSDYAMGWFRQAPGKEREFVAAITWNGGRVFYTASVKGRFTISRDNAKNTMYLQMNSLKPEDTAVYYCAADKDRRTDYLGHPVAYWGQGTQVTVSSGGGGSGGGGSGGGGSGGGGSGGGGSGGGGSGGGGSEVQLVESGGGLVQAGESLRLSCAASGSTFDFKVMGWYRQPPGKQREGVAAIRLSGNMHYAESVKGRFTISKANAKNTVYLQMNSLRPEDTAVYYCKVNIRGQDYWGQGTQVTVSS
notes: Biparatopic: two VHH joined by a GlySer linker; also called 163D2-35GS-127D1; not shown: C-terminal c-myc tag and His6 tag coded by pAX100
B2: CXCR20031 (bispecific antibody)
chain: EVQLVESGGELVQPGGSLRLSCAASGSILTINAMGWYRQAPGKQRELVVRRTRGGSTTYQDSVKGRFTISADIAKKTMYLQMNSLKPEDTAVYYCMLDDRGGVYWGQGTQVTVSSGGGGSGGGGSGGGGSGGGGSGGGGSGGGGSGGGGSEVQLVESGGGLVQPGGSLRLSCVASGRIFSSNAMGWFRQAPGKEREFVAAITWRSGGSAYYADSAKGRFTISRDNAKNTVYLQMNSLKPEDTAVYYCAAGGSSWLSFPPDYWGQGTQVTVSS
notes: Biparatopic: two VHH joined by a GlySer linker; also called 2B2-35GS-163E3; not shown: C-terminal c-myc tag and His6 tag coded by pAX100
B3: CXCR20017 (other)
chain: EVQLVESGGGLVQPGGSLRLSCVASGSIVRINTMGWYRQTPGKQRELVADITSGGNINYIDAVKGRFTISRDNTKNTVYLQMNSLKPEDTAVYYCNAEIVVLVGVWTQRARTGNYWGQGTQVTVSSGGGGSGGGGSGGGGSGGGGSGGGGSGGGGSGGGGSEVQLVESGGGLVQPGGSVRLSCVASGIIFRLSALGWTRQGPGKAREWVAGINSDGTTNYADPVKGRFTISRDNAKNTIYLHMDMLKPEDTAVYYCASGKYRGQGTQVTVSS
notes: Two different VHH joined by a GlySer linker; also called 97A9-35GS-137B7; not shown: C-terminal c-myc tag and His6 tag coded by pAX100
B4: CXCR20021 (bispecific antibody)
chain: EVQLVESGGGLVQAGESLRLSCAASGSTFDFKVMGWYRQPPGKQREGVAAIRLSGNMHYAESVKGRFTISKANAKNTVYLQMNSLRPEDTAVYYCKVNIRGQDYWGQGTQVTVSSGGGGSGGGGSGGGGSGGGGSGGGGSGGGGSGGGGSEVQLVESGGGLVQPGGSLRLSCVASGRIFSSNAMGWFRQAPGKEREFVAAITWRSGGSAYYADSAKGRFTISRDNAKNTVYLQMNSLKPEDTAVYYCAAGGSSWLSFPPDYWGQGTQVTVSS
notes: Biparatopic: two VHH joined by a GlySer linker; also called 127D1-35GS-163E3; 127D1-163E3; not shown: C-terminal c-myc tag and His6 tag coded by pAX100
B5: CXCR20032 (bispecific antibody)
chain: EVQLVESGGELVQPGGSLRLSCAASGSILTINAMGWYRQAPGKQRELVVRRTRGGSTTYQDSVKGRFTISADIAKKTMYLQMNSLKPEDTAVYYCMLDDRGGVYWGQGTQVTVSSGGGGSGGGGSGGGGSGGGGSGGGGSGGGGSGGGGSEVQLVESGGGLVQAGGSLRLSCAASGRTFSDYAMGWFRQAPGKEREFVAAITWNGGRVFYTASVKGRFTISRDNAKNTMYLQMNSLKPEDTAVYYCAADKDRRTDYLGHPVAYWGQGTQVTVSS
notes: Biparatopic: two VHH joined by a GlySer linker; also called 2B2-35GS-163D2; not shown: C-terminal c-myc tag and His6 tag coded by pAX100
B6: CXCR20022 (VHH)
chain: EVQLVESGGGLVQAGGSLRLSCAASGRTFSDYAMGWFRQAPGKEREFVAAITWNGGRVFYTASVKGRFTISRDNAKNTMYLQMNSLKPEDTAVYYCAADKDRRTDYLGHPVAYWGQGTQVTVSSGGGGSGGGGSGGGGSGGGGSGGGGSGGGGSGGGGSEVQLVESGGGLVQAGGSLRLSCAASGRTFSDYAMGWFRQAPGKEREFVAAITWNGGRVFYTASVKGRFTISRDNAKNTMYLQMNSLKPEDTAVYYCAADKDRRTDYLGHPVAYWGQGTQVTVSS
notes: Bivalent: two VHH joined by a GlySer linker; also called 163D2-35GS-163D2; not shown: C-terminal c-myc tag and His6 tag coded by pAX100
B7: CXCR20023 (bispecific antibody)
chain: EVQLVESGGGLVQAGGSLRLSCAASGRTFSDYAMGWFRQAPGKEREFVAAITWNGGRVFYTASVKGRFTISRDNAKNTMYLQMNSLKPEDTAVYYCAADKDRRTDYLGHPVAYWGQGTQVTVSSGGGGSGGGGSGGGGSGGGGSGGGGSGGGGSGGGGSEVQLVESGGGLVQPGGSLRLSCVASGRIFSSNAMGWFRQAPGKEREFVAAITWRSGGSAYYADSAKGRFTISRDNAKNTVYLQMNSLKPEDTAVYYCAAGGSSWLSFPPDYWGQGTQVTVSS
notes: Two different VHH joined by a GlySer linker; also called 163D2-35GS-163E3; not shown: C-terminal c-myc tag and His6 tag coded by pAX100
B8: CXCR20024 (VHH)
chain: EVQLVESGGGLVQPGGSLRLSCVASGRIFSSNAMGWFRQAPGKEREFVAAITWRSGGSAYYADSAKGRFTISRDNAKNTVYLQMNSLKPEDTAVYYCAAGGSSWLSFPPDYWGQGTQVTVSSGGGGSGGGGSGGGGSGGGGSGGGGSGGGGSGGGGSEVQLVESGGGLVQPGGSLRLSCVASGRIFSSNAMGWFRQAPGKEREFVAAITWRSGGSAYYADSAKGRFTISRDNAKNTVYLQMNSLKPEDTAVYYCAAGGSSWLSFPPDYWGQGTQVTVSS
notes: Bivalent: two VHH joined by a GlySer linker; also called 163E3-35GS-163E3; not shown: C-terminal c-myc tag and His6 tag coded by pAX100

How the values were obtained:
Cynomolgus CXCR2 [1] = target: T1, Cynomolgus CXCR2; test: FACS competition vs 3 nM FMAT-Blue Gro-α
Procedure: (§1) Multivalent anti-CXCR2Nanobodies were titrated against 3 nM FMAT-Blue-labeled Gro-α in the FACS ligand competition assay on human and cynomolgus CXCR2 (Table 14). On human CXCR2, blocking potencies range between double digit nM and sub-nM whereas on cynomolgus CXCR2, they range between single and double digit nM.

Human CXCR2 [2] = target: T2, Human CXCR2; test: FACS competition vs 3 nM FMAT-Blue Gro-α
Procedure: as §1

Human CXCR2 [3] = target: T2, Human CXCR2; test: cell-based or functional assay
Cynomolgus CXCR2 [4] = target: T1, Cynomolgus CXCR2; test: cell-based or functional assay
Human CXCR2 [5] = target: T2, Human CXCR2; test: cell-based or functional assay; remark: listed apart in the source

| Binder | % inhibition of max (Cynomolgus CXCR2 [1]) | IC50 (Cynomolgus CXCR2 [1]) | % inhibition of max (Human CXCR2 [2]) | IC50 (Human CXCR2 [2]) | [35S]GTPγS % inhibition of max (GRO-α) (Human CXCR2 [3]) | [35S]GTPγS IC50 (GRO-α) (Human CXCR2 [3]) | FLIPR % inhibition of max (Cynomolgus CXCR2 [4]) | FLIPR IC50 (GRO-α induced calcium release) (Cynomolgus CXCR2 [4]) | FLIPR % inhibition of max (Human CXCR2 [5]) | FLIPR IC50 (GRO-α induced calcium release) (Human CXCR2 [5]) | [35S]GTPγS % inhibition of max (ENA-78) (Human CXCR2 [3]) | [35S]GTPγS % inhibition of max (IL-8) (Human CXCR2 [3]) | [35S]GTPγS IC50 (ENA-78) (Human CXCR2 [3]) | [35S]GTPγS IC50 (IL-8) (Human CXCR2 [3]) |
| --- | --- | --- | --- | --- | --- | --- | --- | --- | --- | --- | --- | --- | --- | --- |
| B1 | 98.5% | 2.08 nM | 99% | 0.9 nM | 100% | 0.891 nM | 100% | 7.88 nM | 100% | 12.2 nM |  |  |  |  |
| B2 | 99% | 1.98 nM | 100% | 0.49 nM |  |  | 100% | 4.26 nM | 100% | 15.2 nM | 100% | 100% | 1380 pM | 840 pM |
| B3 | 73% | 29.5 nM | 99% | 3.4 nM |  |  | 100% | 1080 nM | 100% | 22.9 nM |  |  |  |  |
| B4 | 98.5% | 1.85 nM | 99.5% | 1.09 nM | 100% | 0.551 nM | 100% | 2.31 nM | 100% | 7.32 nM | 100% | 100% | 787 pM | 827 pM |
| B5 | 99% | 1.91 nM | 100% | 0.5 nM |  |  | 100% | 3.65 nM | 100% | 14.7 nM | 100% | 100% | 116 pM | 997 pM |
| B6 | 98% | 8.01 nM | 100% | 4.14 nM | 100% | 28.5 nM | 100% | 8.64 nM | 100% | 9.34 nM |  |  |  |  |
| B7 | 96% | 6.61 nM | 99% | 4.28 nM | 100% | 26.6 nM | 100% | 12 nM | 100% | 14.8 nM |  |  |  |  |
| B8 | 95% | 5.32 nM | 99% | 5.27 nM | 100% | 30.3 nM | 100% | 11.8 nM | 100% | 26.4 nM |  |  |  |  |
